Source: paper PMC4383324

Assays:
[1] = biological target: MyrNCS-1 His6 (N-terminally myristoylated NCS-1 with a carboxyl terminal His6-tag) (UniProt P62166); experiment: SEC-MALS
[2] = biological target: MyrNCS-1 His6 (N-terminally myristoylated NCS-1 with a carboxyl terminal His6-tag) (UniProt P62166); experiment: AUC
[3] = biological target: MyrNCS-1 His6 (N-terminally myristoylated NCS-1 with a carboxyl terminal His6-tag) (UniProt P62166); experiment: micro-batch multi-angle laser light scattering

## MyrNCS-1 His6 (N-terminally myristoylated NCS-1 with a carboxyl terminal His6-tag) (from UniProt P62166 1-190) (natural protein)
[1]
  stoichiometry N: 2
[2]
  Kd: 2 µM
[3]
  Kd: 10 µM
